Changes are numbered by the printed parent chain.
T1: mouse IL-13 (mouse, UniProt P20109 26-131, limits assumed)
T1 sequence (looked up): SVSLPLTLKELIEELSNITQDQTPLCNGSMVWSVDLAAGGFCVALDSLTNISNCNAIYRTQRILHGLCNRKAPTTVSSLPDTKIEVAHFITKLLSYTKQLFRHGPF

B1: 48D3 (antibody, V domains shown)
VH: EVQLVESGGDLVQPGRSLKLSCAASGFTFSDYYMAWVRQAPTKGLEWVASISNDGISTYYRDSVKGRFTISREKAKSSLYLQMDSLRSEDTATYYCTTWNWEFGFFDYWGQGVMVTVSA
VL: DIVLTQSPALAVSLGQRATISCRASQSVTISRYNRMHWYQQRPGQQPKLLIYRSSYLASGIPARFSGSGSGTDFTLTIYPVQADDIATYYCQQNRESPWTFGGGTKLELNR
B2: 51D9 (antibody, V domains shown)
VH: QIQLVQSGPELKKPGESVKISCKASGYTFTDYAMHWVKQAPGKGLKWMAWINTYTGKPTYADDFKGRFVFSLEASASTATLQISNLKNEDTATYFCARAGRTEGTHYYAMDAWGQGTSVTVSS
VL: DIVLTQSPVLAVSLGQRATISCRASQSVSISSSDLMHWYQQRPGHQPKLLIYRTSNLVSGIPARFSGSGSGTDFTLTIDPVQADDIAAYYCQQGRESPWTFGGGTKLELKR
B3: 13C5.5L2E (antibody, V domains shown)
VH: EVTLRESGPGLVKPTQTLTLTCTLYGFSLSTSDMGVDWIRQPPGKGLEWLAHIWWDDVKRYNPALKSRLTISKDTSKNQVVLKLTSVDPVDTATYYCARTVSSGYIYYAMDYWGQGTLVTVSS
VL: DIQMTQSPSSLSASVGDRVTISCRASQDIRNYLNWYQQKPGKAPKLLIFYTSMKPRGVPSRFSGSGSGTDYTLTISSLQPEDIATYYCQQGNTLPLTFGGGTKVEIK
notes: constant regions not restated for this variant
B4: 13C5.5L3F (antibody, V domains shown)
VH: B3 VH
VL: B3 VL with M53K, K54L, P55H, R56S, N92L, L94P
notes: The heavy chain row is printed 'VH 13C5.5L2F'
B5: 13C5 (antibody, V domains shown)
VH: QVTLKESGPGILQPSQTLSLTCSFSGFSLSTSDMGVDWIRQPSGKGLEWLAHIWWDDVKRYNPALKSRLTISKDTSSSQVFLMLASVDTADTATYYCARTVSSGYIYYAMDYWGQGTSVTVSS
VL: DIQMTQTASSLSASLGDRVTISCRASQDIRNYLNWYQRKPDGTVKLLIFYTSKLHSGVPSRFSGSGSGTDYSLTIRNLEQEDIATYFCQQGNTLPLTFGGGTKLEIKR
notes: also called murine 13C5

Experiments:
mouse IL-13 [1] = target: T1, mouse IL-13; experiment: cell-based or functional assay
mouse IL-13 [2] = target: T1, mouse IL-13; experiment: BIACORE against recombinant mouse IL-13
cynomolgus IL-13 [3] = target: T2, cynomolgus IL-13 (cynomolgus, UniProt Q0PW92 21-132); experiment: SPR (Biacore)
T2 construct: also called cyno IL-13; wild type cyno IL-13
T2 sequence (Q0PW92 entry or part of it): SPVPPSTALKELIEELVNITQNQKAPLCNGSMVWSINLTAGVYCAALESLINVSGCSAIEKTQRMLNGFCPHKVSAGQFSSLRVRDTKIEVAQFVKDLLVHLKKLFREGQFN
Procedure: (§1) The BIACORE assay (Biacore, Inc, Piscataway, N.J.) determines the affinity of antibodies with kinetic measurements of on-, off-rate constants. […] All chemicals were obtained from Biacore® AB (Uppsala, Sweden) or otherwise from a different source as described in the text. Approximately 5000 RU of goat anti-mouse IgG, (Fcγ), fragment specific polyclonal antibody (Pierce Biotechnology Inc, Rockford, Ill.) diluted in 10 mM sodium acetate (pH 4.5) was directly immobilized across a CM5 research grade biosensor chip using a standard amine coupling kit according to manufacturer's instructions and procedures at 25 μg/ml. Unreacted moieties on the biosensor surface were blocked with ethanolamine. Modified carboxymethyl dextran surface in flowcell 2 and 4 was used as a reaction surface. Unmodified carboxymethyl dextran without goat anti-mouse IgG in flow cell 1 and 3 was used as the reference surface. For kinetic analysis, rate equations derived from the 1:1 Langmuir binding model were fitted simultaneously to association and dissociation phases of all eight injections (using global fit analysis) with the use of Biaevaluation 4.0.1 software. Purified antibodies were diluted in HEPES-buffered saline for capture across goat anti-mouse IgG specific reaction surfaces. Mouse antibodies to be captured as a ligand (25 μg/ml) were injected over reaction matrices at a flow rate of 5 μl/min. The association and dissociation rate constants, kₒₙ (unit M⁻¹s⁻¹) and koff (unit s⁻¹) were determined under a continuous flow rate of 25 μl/min Rate constants were derived by making kinetic binding measurements at ten different antigen concentrations ranging from 10-200 nM. […] Binding is recorded as a function of time and kinetic rate constants are calculated.

human IL-13 wild type [4] = target: T3, human IL-13 wild type (human, UniProt P35225 35-146); experiment: SPR (Biacore)
T3 construct: also called h IL-13; h IL-13 wt
T3 sequence (P35225 other isoform, or with tags, fused parts or gaps limits assumed): as the sequence (Q0PW92 entry or part of it) above, with S1G, K10R, V42M, N67S, R83H, V100L, Q110R counted along it
Procedure: as §1

rhesus IL-13 [5] = target: T4, rhesus IL-13 (rhesus, UniProt Q864V6 21-132, limits assumed); experiment: SPR (Biacore)
T4 sequence (Q864V6 21-132 limits assumed): as the sequence (Q0PW92 entry or part of it) above, with P5R, Q110R counted along it
Procedure: as §1

cynomolgus IL-13 [6] = target: T2, cynomolgus IL-13; experiment: cell-based or functional assay
human IL-13 wild type [7] = target: T3, human IL-13 wild type; experiment: cell-based or functional assay
rhesus IL-13 [8] = target: T4, rhesus IL-13; experiment: cell-based or functional assay
[9] = target: T5, human IL-13 variant (R130Q) (human, UniProt P35225 35-146); experiment: SPR (Biacore), mAb captured, IL-13 as analyte
T5 construct: called R110Q in the assay descriptions (mature numbering); also called h IL-13v; hIL-13v
T5 sequence (P35225 35-146 limits assumed, stated change not applied): as the sequence (Q0PW92 entry or part of it) above, with S1G, K10R, V42M, N67S, R83H, V100L counted along it
Procedure: as §1

human IL-13 wild type [10] = target: T3, human IL-13 wild type; experiment: blocking of IL-13 binding to IL-13Rα2: cell surface RBA (125I-IL-13, transfected COS cells) and receptor binding ELISA (IL-13Rα2/Fc); native IL-13 in solution; blocking of binding to IL-13Rα2, cell surface RBA and RB ELISA; lower end of range
Procedure: (§2) The plates were washed again 5 times with 300 ul 0.1% PBST, followed by addition of TMB substrate reagent (100 ul/well, Pharmingen); developed for 5 min, and stopped by adding 50 ul of 2M H2SO4 (VWR). ODs at 450 nm were determined by spectrophotometry.
(§3) Additionally, the receptor blocking properties of the mAbs were also assessed by receptor binding assay using IL-13Rα2-transfected COS cells. Recombinant human IL-13 was labeled with ¹²⁵I (Amersham, Arlington Heights, Ill.), using IODO-GEN reagent (Pierce, Rockford, Ill.) as previously described (Obiri N I et al., (1995) J Biol Chem. 270:8797-8804). […] For binding experiments, COS cells were transiently transfected with human IL-13Rα2 by Lipofectamine 2000 (Invitrogen), and incubated for 48 hr. Transfected COS cells (5×10^5 cells in 100 μL binding buffer: RPMI 1640 containing 0.2% human serum albumin and 10 mmol HEPES) were incubated with 1.0 nM ¹²⁵I-IL-13 with or without 1 uM unlabeled IL-13 at 4° C. for 2 hours. Cell-bound ¹²⁵I-IL-13 was separated from unbound ¹²⁵I-IL-13 by centrifugation through a phthalate oil gradient, and radioactivity was determined with a gamma counter (Wallac, Gaithersburg, Md.).

human IL-13 wild type [11] = target: T3, human IL-13 wild type; experiment: SPR (Biacore), mAb captured, IL-13 as analyte; native recombinant human wild-type IL-13, Biacore
Procedure: as §1

cynomolgus IL-13 [12] = target: T2, cynomolgus IL-13; experiment: cell-based or functional assay; remark: listed apart in the source
[13] = target: T5, human IL-13 variant (R130Q); experiment: cell-based or functional assay
human IL-13 wild type [14] = target: T3, human IL-13 wild type; experiment: cell-based or functional assay; remark: listed apart in the source
mouse IL-13 [15] = target: T1, mouse IL-13; experiment: indirect ELISA, captured mAb, biotinylated mouse IL-13
Procedure: Murine anti-human IL-13 mAbs were prepared at various concentrations ranging from 0.1 to 100 ng/ml in PBS containing 0.1% BSA; 50 ul of each antibody dilution was added to the coated ELISA plate and incubated for 1 hour at room temperature. Wells were washed 3 times with PBS containing 0.05% Tween-20. […] Wells were washed 3 times with PBS containing 0.05% Tween-20. Streptavidin HRP (Pierce #21126, Rockland, Ill.) was diluted 1:20000 in PBS containing 0.1% BSA; […] was added and the plates incubated for 1 hour at room temperature. Plates were washed 3 times with PBS containing 0.05% Tween-20. Fifty microliters of TMB solution (Sigma # T0440, St. Louis, Mo.) was added to each well and incubated for 10 minutes at room temperature. The reaction was stopped by addition of 1N sulphuric acid. Plates were read spectrophotmetrically at a wavelength of 450 nm.

human IL-13 wild type [16] = target: T3, human IL-13 wild type; experiment: blocking of IL-13 binding to IL-13Rα2: cell surface RBA (125I-IL-13, transfected COS cells) and receptor binding ELISA (IL-13Rα2/Fc); native IL-13 in solution; blocking of binding to IL-13Rα2, cell surface RBA and RB ELISA; upper end of range
Procedure: as §2, §3

cynomolgus IL-13 [17] = target: T2, cynomolgus IL-13; experiment: not stated in the sentence (Biacore elsewhere)
[18] = target: T5, human IL-13 variant (R130Q); experiment: not stated in the sentence (Biacore elsewhere)

| Binder | IC50, A-549 bioassay against recombinant mouse IL-13 (mouse IL-13 [1]) [nM] | Kd (mouse IL-13 [2]) [nM] | Kd (cynomolgus IL-13 [3]) [nM] | Kd (human IL-13 wild type [4]) [nM] | Kd (rhesus IL-13 [5]) [nM] | Potency (IC50), A-549 bioassay (cynomolgus IL-13 [6]) [nM] | Potency (IC50), A-549 bioassay (human IL-13 wild type [7]) [nM] | Potency (IC50), A-549 bioassay (rhesus IL-13 [8]) [nM] | other results |
| --- | --- | --- | --- | --- | --- | --- | --- | --- | --- |
| B1 | 0.0491 | 0.105 | – | – | – | – | – | – | – |
| B2 | 0.343 | 0.145 | – | – | – | – | – | – | – |
| B3 | – | – | 0.52 | 0.12 | 0.29 | 1.2 | 0.18 | 0.4 | – |
| B4 | – | – | 0.19 | 0.24 | 0.11 | 0.46 | 0.15 | 0.14 | – |
| B5 | – | – | – | – | – | – | – | – | Kd [9]: 0.0759 nM; koff [9]: 4.35e-05 s⁻¹; kon [9]: 574000 M⁻¹ s⁻¹; IC50 (human IL-13 wild type [10]): 1 to 3 nM; Kd (human IL-13 wild type [11]): 0.0745 nM; koff (human IL-13 wild type [11]): 9.31e-05 s⁻¹; kon (human IL-13 wild type [11]): 1.25e+06 M⁻¹ s⁻¹; Average IC50, IL-13-induced TARC production by A-549 cells (cynomolgus IL-13 [12]): 5 nM; Average IC50, IL-13-induced TARC production by A-549 cells [13]: 0.17 nM; Average IC50, IL-13-induced TARC production by A-549 cells (human IL-13 wild type [14]): 0.19 nM; binding result (mouse IL-13 [15]): no binding (tested: 0.1 to 100 ng/ml); IC50 (human IL-13 wild type [16]): 1 to 3 nM; Kd (cynomolgus IL-13 [17]): 1.8 nM; Kd [18]: 0.05 nM |

— patent US20110165066A1 (AbbVie / Abbott, published 2011)
